Ends that are not written are not given here.
Legend:
NRP2 = biological target: T1, NRP2 (Homo sapiens, UniProt O60462); assay: SPR protein-protein interaction, human NRP2 over immobilized protein; format: binding; conditions: NRP2 flowed as analyte (50 nM or 20 nM); running buffer with 5 mM CaCl2
T1 construct: Fc (C); purchased R&D Systems 2215-N2
Procedure: Protein-Protein Interaction studies. […] SPR experiments were conducted on a Bio-Rad ProteOn XPR36 Protein Interaction Array instrument. Proteins were immobilized on different channels of ProteOn GLC sensor chips through amine coupling. Analyte proteins were flowed over the immobilized proteins. The sensor chip surface was regenerated between each analyte run to remove interacting proteins. Data was double referenced against an interspot (untreated chip surface) and a blank surface (activated and deactivated for amine coupling).
Studies were performed to confirm the binding specificity of Neuropilin 2 (NRP2) to Fc-HRS(2-60) using orthologous methods to those used in the large scale Retrogenix screening (Example 1). In a series of experiments, Fc-HRS(2-60) and related proteins were immobilized on SPR chips, and NRP2 and related proteins were flowed as analytes. Upon confirmation of the NRP2:Fc-HRS(2-60) interaction, the dependence on divalent cations was tested as NRP2 is known to have Ca^2+ binding sites. The effects of previously characterized NRP2 ligands on the NRP2: Fc-HRS(2-60) interaction was also tested to determine if these known ligands have competitive effects on the Fc-HRS(2-60) interaction.

SLC13A3 = biological target: T2, SLC13A3 (Homo sapiens, UniProt Q8WWT9); assay: Retrogenix cell microarray screen, SLC13A3; format: binding; conditions: 20 μg/ml test protein; for Sequential incubation confirmatory screening result, SLC13A3: sequential staining method, expressed in HEK293 cells
T2 construct: host or cells: HEK293
T2 sequence (Q8WWT9 1-602): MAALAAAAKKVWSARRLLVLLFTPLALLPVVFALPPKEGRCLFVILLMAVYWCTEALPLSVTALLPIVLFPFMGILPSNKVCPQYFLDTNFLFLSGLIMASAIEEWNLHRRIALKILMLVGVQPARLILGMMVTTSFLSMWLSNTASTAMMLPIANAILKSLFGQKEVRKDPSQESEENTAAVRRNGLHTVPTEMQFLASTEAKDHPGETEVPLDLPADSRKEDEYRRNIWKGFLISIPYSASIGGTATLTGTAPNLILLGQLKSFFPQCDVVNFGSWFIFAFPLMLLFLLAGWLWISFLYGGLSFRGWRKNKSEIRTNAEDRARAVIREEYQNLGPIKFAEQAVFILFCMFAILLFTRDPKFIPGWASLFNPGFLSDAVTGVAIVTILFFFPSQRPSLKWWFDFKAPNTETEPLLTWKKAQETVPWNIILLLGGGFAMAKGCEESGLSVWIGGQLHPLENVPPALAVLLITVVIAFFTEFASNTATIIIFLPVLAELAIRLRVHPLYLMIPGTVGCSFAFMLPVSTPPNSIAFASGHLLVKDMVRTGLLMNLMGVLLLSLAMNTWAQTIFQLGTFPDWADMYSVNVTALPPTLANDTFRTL
Procedure: (§1) To identify potential interacting partners of HRS, and related HRS polypeptides, the Retrogenix cell microarray screening technology (Retrogenix Ltd., High Peak Rd, United Kingdom) was used to evaluate binding of a HRS-Fc fusion protein construct ([Fc-HRS(2-60)] to a library of approximately 4500 membrane bound human proteins individually expressed in HEK293 cells.
(§2) In brief, HEK293 cells were plated onto glass cover slides which have been pre-treated by the application of discrete expression vectors to enable reverse transfection and expression of each of the 4500 membrane proteins, to create a cell microarray. Transfection efficiencies were assessed via ZsGreen1 expression and exceeded the minimum threshold for all of the library members screened.
(§3) Use of a smaller HRS fragment with a Fc tag provided for high sensitivity detection via the use of an AlexaFluor647 labeled anti-human IgG Fc antibody (AF647) as the detection reagent, and readily available controls to confirm specificity. The detection antibody was used at screening concentrations of 2, 5, and 20 μg/ml, as more fully described below.
Test Protein was screened at a concentration of 20 μg/ml using two different screening formats; either a sequential staining method, or a pre-incubation staining method. Sequential staining involved, in brief, the sequential addition to the test cells, of the test protein and detection reagents, while the pre-incubation staining method involved the pre-incubation of the test protein with the detection reagents (2:1 molar ratio of test protein to detection antibody) to pre-form higher avidity complexes prior to the addition to the test cells.
(§4) Primary hits (duplicate spots) were identified by analyzing fluorescence intensity in the AlexaFluor 647 and ZsGreen1 emission channels using the ImageQuant system, following standard fluorescent methodology. […]

FCGR1A = biological target: T3, FCGR1A (Homo sapiens, UniProt P12314); assay: Retrogenix cell microarray screen, FCGR1A; format: binding; conditions: sequential staining method; 20 μg/ml test protein; expressed in HEK293 cells
T3 construct: host or cells: HEK293
Procedure: as §1, §2
as §3, with “below. […]” for “below.”
as §4

FCGR2A = biological target: T4, FCGR2A (Homo sapiens, UniProt P12318); assay: Retrogenix cell microarray screen, FCGR2A; format: binding; conditions: sequential staining method; 20 μg/ml test protein; expressed in HEK293 cells
T4 construct: host or cells: HEK293
T4 sequence (P12318 34-317): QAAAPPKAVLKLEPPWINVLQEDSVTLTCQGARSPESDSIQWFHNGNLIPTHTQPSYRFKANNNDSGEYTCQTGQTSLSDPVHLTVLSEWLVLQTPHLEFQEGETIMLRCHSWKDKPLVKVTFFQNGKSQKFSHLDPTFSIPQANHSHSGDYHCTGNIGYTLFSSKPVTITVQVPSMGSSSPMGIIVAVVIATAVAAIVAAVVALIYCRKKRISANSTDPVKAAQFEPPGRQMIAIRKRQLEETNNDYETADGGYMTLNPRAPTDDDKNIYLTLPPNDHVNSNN
Procedure: as §1, §2
as §3, with “below. […]” for “below.”
as §4

IGHG3 = biological target: T5, IGHG3 (Homo sapiens, UniProt P01860); assay: Retrogenix cell microarray screen, IGHG3; format: binding; conditions: sequential staining method; 20 μg/ml test protein; expressed in HEK293 cells
T5 construct: host or cells: HEK293
Procedure: as §1, §2
as §3, with “below. […]” for “below.”
as §4

MS4A1 = biological target: T6, MS4A1 (Homo sapiens, UniProt P11836); assay: Retrogenix cell microarray screen, MS4A1; format: binding; conditions: 20 μg/ml test protein
T6 construct: host or cells: HEK293
T6 sequence (P11836 1-297): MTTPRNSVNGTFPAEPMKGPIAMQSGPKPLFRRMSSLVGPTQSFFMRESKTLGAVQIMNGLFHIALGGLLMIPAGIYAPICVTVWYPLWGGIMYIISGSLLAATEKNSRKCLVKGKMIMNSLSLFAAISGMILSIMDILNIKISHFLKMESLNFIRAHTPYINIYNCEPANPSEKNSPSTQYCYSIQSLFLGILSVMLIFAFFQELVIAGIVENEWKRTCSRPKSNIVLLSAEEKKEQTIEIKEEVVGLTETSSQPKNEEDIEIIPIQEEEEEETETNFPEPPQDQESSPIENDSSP
Procedure: as §1, §2
as §3, with “below. […]” for “below.”
as §4

[1] = tested on: murine model of sclerodermatous chronic graft vs. host disease (scl cGvHD); assay: Murine model of sclerodermatous chronic graft vs. host disease; format: in vivo, mouse; conditions: Fc-HRS(2-60) 0.4 mg/kg weekly IV, nintedanib daily oral, termination 8 weeks
Procedure: This study was designed to investigate the in vivo potential of test compounds in a murine model of sclerodermatous chronic graft vs. host disease (scl cGvHD). A H-2^d minor histocompatibility antigen-mismatched model was employed. The model was prepared by allogenic transplantation of bone marrow cells and splenocytes of male donor B10.D2 mice into 8 week old female Balb/c mice which had been subject to whole body irradiation with 700 cGy 6 hours prior to transplantation.
Treatment Regimen. Fifty-six (56) Balb/c mice, (Janvier, Le Genest St. Isle, France, female, 8 weeks) were used as recipients in this study while B10.D2 mice (Jackson Laboratory, Bar Harbor, Me., USA, male) were euthanized to provide donor cells for allogenic transplantation. The animals were assigned to study groups of 8 mice, and housed in specific pathogen-free conditions with sterile food and water. In brief, animals received weekly intravenous injections of the Vehicle of Fc-HRS(2-60) (20 mM Histidine/125 mM NaCl/10 mM Methionine/3% Sucrose/0.02% PS20, pH 6.9) beginning on Day 7 post transplantation (groups 2 and 3) or Fc-HRS(2-60) (0.4 mg/kg) beginning on Day 7 (group 4) or Day 21 (group 6) post-transplantation. […] Tissues were examined histologically using common staining techniques and tissue homogenates were analyzed for hydroxyproline content as an index of collagen content. […]

CD86 = biological target: T7, CD86 (Homo sapiens, UniProt P42081); assay: Retrogenix cell microarray screen, CD86; format: binding; conditions: 20 μg/ml test protein
T7 construct: host or cells: HEK293
T7 sequence (P42081 24-329): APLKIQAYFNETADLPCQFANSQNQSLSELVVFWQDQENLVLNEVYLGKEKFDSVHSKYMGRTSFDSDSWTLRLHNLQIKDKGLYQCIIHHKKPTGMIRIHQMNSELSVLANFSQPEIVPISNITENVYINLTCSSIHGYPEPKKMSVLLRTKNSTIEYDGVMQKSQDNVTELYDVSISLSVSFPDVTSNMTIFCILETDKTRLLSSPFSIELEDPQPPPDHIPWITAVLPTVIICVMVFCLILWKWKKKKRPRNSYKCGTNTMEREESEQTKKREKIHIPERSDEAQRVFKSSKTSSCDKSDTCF
Procedure: as §1, §2
as §3, with “below. […]” for “below.”
as §4

[2] = pre-incubation staining method (2:1 test protein to detection antibody), HEK293 cells
[3] = sequential staining method, expressed in HEK293 cells

T1 sequence (O60462 21-931): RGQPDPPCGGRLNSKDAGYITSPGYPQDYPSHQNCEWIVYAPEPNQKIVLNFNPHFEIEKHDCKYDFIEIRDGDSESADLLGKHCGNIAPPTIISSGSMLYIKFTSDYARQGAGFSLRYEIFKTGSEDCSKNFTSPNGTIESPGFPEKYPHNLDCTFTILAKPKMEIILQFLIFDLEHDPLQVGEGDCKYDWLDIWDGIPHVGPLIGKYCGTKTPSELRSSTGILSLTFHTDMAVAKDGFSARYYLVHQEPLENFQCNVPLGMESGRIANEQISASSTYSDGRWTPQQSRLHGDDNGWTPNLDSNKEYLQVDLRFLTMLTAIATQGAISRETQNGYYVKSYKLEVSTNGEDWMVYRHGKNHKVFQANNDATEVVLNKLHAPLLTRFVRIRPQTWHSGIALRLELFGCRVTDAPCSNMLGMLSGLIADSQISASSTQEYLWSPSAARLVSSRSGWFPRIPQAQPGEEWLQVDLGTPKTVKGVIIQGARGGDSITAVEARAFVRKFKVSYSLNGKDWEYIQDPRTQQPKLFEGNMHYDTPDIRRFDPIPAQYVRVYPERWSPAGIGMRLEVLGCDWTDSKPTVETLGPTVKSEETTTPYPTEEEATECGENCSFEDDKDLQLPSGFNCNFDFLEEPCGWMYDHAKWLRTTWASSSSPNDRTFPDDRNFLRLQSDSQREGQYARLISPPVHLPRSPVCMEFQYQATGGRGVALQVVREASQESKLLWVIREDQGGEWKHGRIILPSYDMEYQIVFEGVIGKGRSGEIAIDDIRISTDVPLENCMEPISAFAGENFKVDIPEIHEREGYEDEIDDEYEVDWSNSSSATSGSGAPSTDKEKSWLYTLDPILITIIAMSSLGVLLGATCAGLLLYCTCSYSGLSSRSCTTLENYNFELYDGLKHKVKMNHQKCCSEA
T3 sequence (P12314 16-374): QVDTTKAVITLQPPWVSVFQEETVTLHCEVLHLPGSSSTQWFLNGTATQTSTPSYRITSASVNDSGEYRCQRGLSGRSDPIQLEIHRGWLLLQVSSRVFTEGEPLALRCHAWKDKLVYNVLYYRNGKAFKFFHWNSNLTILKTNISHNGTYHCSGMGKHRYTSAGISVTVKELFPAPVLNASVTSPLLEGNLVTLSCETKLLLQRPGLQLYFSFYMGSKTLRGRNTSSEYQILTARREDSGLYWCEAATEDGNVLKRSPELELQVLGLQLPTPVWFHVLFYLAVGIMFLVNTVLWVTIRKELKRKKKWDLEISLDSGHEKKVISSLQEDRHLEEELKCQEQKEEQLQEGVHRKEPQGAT
T5 sequence (P01860 whole entry): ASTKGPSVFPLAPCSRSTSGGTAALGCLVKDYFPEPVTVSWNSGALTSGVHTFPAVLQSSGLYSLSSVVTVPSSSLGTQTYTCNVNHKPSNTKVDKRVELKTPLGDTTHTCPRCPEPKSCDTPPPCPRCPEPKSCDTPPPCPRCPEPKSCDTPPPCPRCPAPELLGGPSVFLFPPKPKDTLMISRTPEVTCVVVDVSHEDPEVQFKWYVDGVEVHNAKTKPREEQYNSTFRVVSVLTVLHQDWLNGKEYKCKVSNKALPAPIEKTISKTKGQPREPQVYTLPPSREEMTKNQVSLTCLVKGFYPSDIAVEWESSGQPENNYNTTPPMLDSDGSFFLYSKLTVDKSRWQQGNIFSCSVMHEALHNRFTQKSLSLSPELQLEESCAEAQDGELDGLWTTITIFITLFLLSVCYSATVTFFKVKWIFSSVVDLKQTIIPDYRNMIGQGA

| binding of human NRP2 to immobilized protein (SPR) (NRP2) | Sequential incubation confirmatory screening result, SLC13A3 (SLC13A3) | Sequential incubation confirmatory screening result, FCGR1A (FCGR1A) | Sequential incubation confirmatory screening result, FCGR2A (FCGR2A) | Sequential incubation confirmatory screening result, IGHG3 (IGHG3) | Molecule | further results |
| --- | --- | --- | --- | --- | --- | --- |
| does not bind | – | – | – | – | WARS WHEP: WHEP domain of WARS with a V5/His tag (SLLELFNSIATQGELVRSLKAGNASKDEIDSAVKMLVSLKMSYKAAAGEDYKADCPP; also: V5/His tag (not included)) | – |
| does not bind | – | – | – | – | MARS Fc-WHEP: Fc domain fused to the WHEP domain of MARS (QIQALMDEVTKQGNIVRELKAQKADKNEVAAEVAKLLDLKKQLAVAEGKPPEAPKGK; not fully specified (N-terminus); also: fused to dimerising Fc domain (not included)) | – |
| – | INVERSE | NON SPEC | NON SPEC | STRONG | RITUXIMAB | Pre-incubation confirmatory screening, Binding scoring, SLC13A3 (SLC13A3; [2]): INVERSE; Pre-incubation confirmatory screening, Binding scoring, MS4A1 (MS4A1; [2]): STRONG; Sequential incubation confirmatory screening result, MS4A1 (MS4A1; [3]): STRONG |
| – | – | – | – | – | COC(=O)c1ccc2c(c1)NC(=O)/C2=C(\Nc1ccc(N(C)C(=O)CN2CCN(C)CC2)cc1)c1ccccc1 [nintedanib] | measures of fibrosis in skin and lung ([1]; intervention beginning 7 days post-transplantation): significantly ameliorated all measures of fibrosis; fibrotic endpoints in skin and lung ([1]; intervention beginning 21 days post-transplantation): significantly improved most endpoints measured |
| – | NON SPEC | NON SPEC | NON SPEC | STRONG | CTLA4-FC | Pre-incubation confirmatory screening, Binding scoring, CD86 (CD86; [2]): STRONG; Sequential incubation confirmatory screening result, CD86 (CD86; [3]): STRONG |
| does not bind | – | – | – | – | GARS Fc-WHEP: Fc domain fused to the WHEP domain of GARS (VLAPLRLAVRQQGDLVRKLKEDKAPQVDVDKAVAELKARKRVLEAKELALQPKDDIV; not fully specified (N-terminus); also: fused to dimerising Fc domain (not included)) | – |
